B1: Gamma-crystallin C, residues 91 to 170; numbered along this chain, P07315 (parent)
chain: RLYEREDHKGLMMELSEDCPSIQDRFHLSEIRSLHVLEGCWVLYELPNYRGRQYLLRPQEYRRCQDWGAMDAKAGSLRRV

Variants of: B1
Assay: abundance fitness (aPCA) (normalised: wild type 0, dead -1); higher = more abundant; growth selection in yeast, the domain comes from the species named
Settings: Homo sapiens

Abundance fitness of substitutions, site by site:
G10: T -1.01; V -0.821; Y -0.623
L11: A -0.13; C -0.08; D -0.248; E 0; F -0.017; G -0.092; H -0.144; I -0.116; M -0.017; N 0.018; P -0.004; Q -0.127; R -0.031; S -0.089; T -0.049; V -0.059; W -0.289
M12: A -0.127; C -0.288; D -0.863; F -0.342; G -0.286; H -0.483; I -0.242; K -0.464; L -0.238; N -0.11; P -0.038; Q -0.636; R -0.32; S -0.172; T -0.464; V -0.096; W -0.17; Y -0.063
M13: A -0.085; C -0.118; D -0.706; E -0.327; F -0.253; G -0.07; H -0.283; I -0.148; L -0.078; N -0.24; P -1; Q -0.22; R -0.261; S -0.441; V -0.002; W -0.018; Y -0.112
E14: A -0.15; C -0.565; D -0.485; G -0.524; I -0.265; K -0.095; P -0.269; Q -0.227; R -0.397; S -0.25; T -0.169; V -0.227; Y -0.04
L15: A -0.477; C -0.09; D -0.736; E -0.89; F -0.134; G -1.03; M -0.431; N -0.6; S -0.832; T -0.389; V 0.037
S16: A -0.043; C -0.096; D -0.029; E 0.118; F -0.123; G -0.082; I -0.102; K -0.135; L -0.276; M -0.365; N -0.025; P -0.859; Q -0.132; R -0.082; T -0.129; Y -0.094
E17: A -0.18; C -0.168; D -0.035; F -0.516; G -0.132; H -0.564; I -0.533; K -0.416; L -0.544; N -0.477; P -0.91; Q -0.089; R -0.422; S -0.155; T -0.231; V -0.253; W -0.187; Y -0.526
D18: A -0.462; C -0.676; E -0.675; F -0.955; G -0.936; I -0.758; K -0.934; L -0.956; M -0.496; P -0.66; Q -0.935; R -0.938; S -0.142; T -0.805; V -1.01; W -0.997; Y -0.748
C19: A -0.836; E -0.369; F -0.969; K -0.623; L -0.659; M -0.761; P -0.902; R -0.886; S -0.92; T -0.535; V -0.43; W -0.807; Y -0.712
P20: A -0.025; C -0.253; D -0.24; E -0.11; G -0.394; H 0.061; I -0.506; L -0.613; M -0.684; N -0.152; Q -0.442; R -0.44; S -0.292; T -0.43; V -0.345; W -0.503; Y -0.996
S21: A -0.467; C -0.089; D -0.07; E -0.554; G -0.613; H -0.184; I -0.842; K -0.472; L -0.761; M -0.914; N 0.053; P -0.602; R -0.454; T -0.456; V -0.56; W -0.904; Y -0.762
I22: A -0.784; C -0.61; D -0.89; F -0.47; G -0.921; L -0.084; M -0.562; P -0.978; R -0.771; S -0.975; T -0.649; V -0.149; W -0.801; Y -0.6
Q23: A -0.044; C -0.187; D -0.276; E 0; F -0.093; G -0.124; H -0.122; I 0.007; K -0.043; L -0.076; M -0.033; N -0.016; P -0.127; R -0.128; S -0.145; V -0.053; W 0.003; Y -0.17
D24: A -0.008; C -0.274; E 0.045; G -0.167; H -0.087; K -0.256; L -0.31; M -0.194; N -0.183; P -0.951; Q -0.213; S -0.067; T -0.202; V -0.396; W -0.516; Y -0.35
R25: A -0.086; C -0.339; D -0.396; G -0.602; I -0.598; K -0.07; L -0.184; P -0.736; Q -0.179; S -0.078; T -0.148; V -0.025; W -0.134; Y -0.463
F26: A -0.564; C -0.317; E -0.923; G -0.406; I -0.553; K -0.818; L -0.343; M -0.049; Q -0.787; R -0.886; S -0.69; T -0.217; V -0.461; W -0.007; Y -0.461
H27: A -0.069; C -0.115; E -0.119; F -0.414; G 0.047; I -0.739; K -0.137; L -0.18; M -0.075; N 0.075; Q -0.034; R -0.037; S -0.079; T -0.345; V -0.602; W -0.441
L28: A -0.129; E -0.451; F -0.335; G -0.364; H -0.448; I 0.093; K -0.022; M -0.038; N -0.697; P -0.864; Q -0.337; R -0.05; S -0.251; T -0.601; V -0.035; W 0.134; Y -0.252
S29: A -0.161; C -0.237; D -0.073; E -0.112; F -0.318; G -0.118; H -0.064; I -0.408; K -0.013; L -0.165; M -0.408; N -0.003; P -0.199; Q -0.086; R -0.043; T -0.012; V -0.328; W -0.113; Y -0.132
E30: A -0.133; C -0.117; D -0.424; F -0.234; G -0.273; H 0.019; I -0.458; K -0.13; L -0.368; N -0.116; P -1.17; R -0.184; S -0.222; T -0.186; V -0.275; W -0.455; Y -0.145
I31: A -0.611; C -0.833; D -0.843; E -0.987; G -1.01; K -1.02; N -0.912; P -0.951; Q -0.992; R -0.776; S -0.665
